B1: Cell division control protein 13 (Saccharomyces cerevisiae), P32797 (parent)
chain: MDTLEEPECPPHKNRIFVSSSKDFEGYPSKAIVPVQFVALLTSIHLTETKCLLGFSNFERRGDQSQEDQYLIKLKFKDRGSERLARITISLLCQYFDIELPDLDSDSGASPTVILRDIHLERLCFSSCKALYVSKHGNYTLFLEDIKPLDLVSVISTISTKSTNSSKHSSSELISECDLNNSLVDIFNNLIEMNRDEKNRFKFVKLIHYDIELKKFVQDQQKVLSQKSKAAAINPFFVPNRLGIPYIESQNEFNSQLMTLNVDEPTTDISNMGEEMHDSADPIEDSDSSTTSSTGKYFSSKSYIQSQTPERKTSVPNNWHDDDSGSKRKRKLSFHSPNASSIRKAISYEQLSLASVGSVERLEGKIVGMNPPQFASINEFKYCTLKLYFTQLLPNVPDKVLVPGVNCIEIVIPTRERICELFGVLNCQSDKISDILLLEKPDRISVEVERILWDNDKTASPGMAVWSLKNISTDTQAQAQVQVPAQSSASIDPSRTRMSKMARKDPTIEFCQLGLDTFETKYITMFGMLVSCSFDKPAFISFVFSDFTKNDIVQNYLYDRYLIDYENKLELNEGFKAIMYKNQFETFDSKLRKIFNNGLRDLQNGRDENLSQYGIVCKMNIKVKMYNGKLNAIVRECEPVPHSQISSIASPSQCEHLRLFYQRAFKRIGESAISRYFEEYRRFFPIHRNGSHLAKLRFDEVKHEPKKSPTTPALAEHIPDLNADVSSFDVKFTDISSLLDSSARLPRPQQTHKSNTLYSCEGRIIAIEYHASDLCFHITNELPLLQTRGLAPERVLQLHIITSKNFAYFFNRSSAYLQRQPLEEKYTQLAQFLGHSFKFNITSSLTLFPDTTVALQIWCPIECTFRELQQQLAHPKVAAAPDSGSLDCAINATVNPLRLLAAQNGVTVKKEEDNDDDAGAVPTS
B2: Cell division control protein 13 (Saccharomyces cerevisiae), P32797 (parent)
chain: B1 chain
partner: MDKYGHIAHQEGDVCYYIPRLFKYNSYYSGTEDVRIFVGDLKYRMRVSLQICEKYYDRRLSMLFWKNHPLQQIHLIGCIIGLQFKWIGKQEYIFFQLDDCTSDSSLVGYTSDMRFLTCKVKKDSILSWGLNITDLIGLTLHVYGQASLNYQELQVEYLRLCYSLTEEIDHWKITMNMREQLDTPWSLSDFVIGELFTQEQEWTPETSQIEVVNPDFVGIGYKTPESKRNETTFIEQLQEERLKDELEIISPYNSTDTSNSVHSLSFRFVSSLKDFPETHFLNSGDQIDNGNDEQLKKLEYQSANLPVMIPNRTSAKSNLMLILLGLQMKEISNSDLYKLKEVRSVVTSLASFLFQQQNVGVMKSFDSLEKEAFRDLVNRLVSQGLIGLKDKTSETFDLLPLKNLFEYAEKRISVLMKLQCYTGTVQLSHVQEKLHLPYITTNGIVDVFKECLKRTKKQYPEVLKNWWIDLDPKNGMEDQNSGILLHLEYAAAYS

Variants of: B1
Details: with smt3_yeast SMT3, Q12306
smt3_yeast SMT3, Q12306, sequence (Q12306 whole entry): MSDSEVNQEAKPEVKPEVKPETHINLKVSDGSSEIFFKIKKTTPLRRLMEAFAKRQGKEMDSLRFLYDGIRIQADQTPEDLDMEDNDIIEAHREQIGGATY

| Variant | effect of a mutation on the interaction |
| --- | --- |
| K909R | disrupting interaction |

Variants of: B2
Details: with stn1_yeast STN1, P38960

| Variant | effect of a mutation on the interaction |
| --- | --- |
| K909R | decreasing interaction |
